Measurements from article doi:10.1101/2025.03.30.646023 (bioRxiv, 2025).

What was measured:
[1] = biological target: T1, SARS-CoV-2 spike S2 [aa 1149-1167] peptide (SARS-CoV-2, UniProt P0DTC2); assay: crystal structure
T1 chain: KEELDKYFKNHTSPDVDLG

[2] = biological target: T2, SARS-CoV-2 spike S2 stem helix peptide (amino acid 1143 - 1162) (SARS-CoV-2, UniProt P0DTC2, biotin, amino-terminus); assay: SPR
T2 chain: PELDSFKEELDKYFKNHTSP

[3] = biological target: LC556375.1 RBD (Sarbecovirus Rc-o319 (Rhinolophus …, strain)); assay: flow cytometry on cells

B1: GB-0669 Fab (Fab, V domains shown)
VH: EVQLVESGAEVKKPGESLKISCKGSGYTFTRYWIGWVRQMPGKGLEWMGIIYPGDSDVRYSPSFQGHVTISADKSISTAYLQWNSLKASDTAMYYCARLPQYCSKGVCYRWFDPWGQGTLVTVSS
VL: EIVLTQSPSSVSASVGDRVTITCRASQGISSWLAWYQQKPGKAPKLLIYAASSLQSGVPSRFSGSGSGTDFTLTISSLQPEDFATYYCQQGHSFPYTFGQGTNLEIK
binding result [1]: binds
binding result [2]: binds

B2: CV3-25 Fab (Fab, V domains shown)
VH: EVQLVESGAEVKKPGESLKISCKGSGYTFTRYWIGWVRQMPGKGLEWMGIIYPGDSDTRYSPSFQGHVTISADKSISTAYLQWNSLKASDTAMYYCARLPQYCSNGVCQRWFDPWGQGTLVTVSS
VL: EIVLTQSPSSVSASVGDRVTITCRASQGISSWLAWYQQKPGKAPKLLIYAASSLQSGVPSRFSGSGSGTDFTLTISSLQPEDFATYYCQQGNSFPYTFGQGTNLEIK
binding result [2]: binds

B3: PRO-37587 (antibody, V domains shown)
VH: QVQLVQSGAEVKKPGSSVKVSCKASGDTSDTYTISWVRQAPGQGLEWMGRIILLSGYANYAQKIQGRVTITADKSTSTAYMELTSLRSDDTAVYYCARGFNGDYYGWGDDDAFDFWGQGTLVTVYS
VL: QTVLTQPPSVSGAPGQRVTISCTGSSSNIGAGYRVHWYQQLPGTAPKLLIAGRSNRPSGVPDRFSGSKSGTSASLAITGLQAEDEADYYCQSYDSSLFDPHWVFGGGTKLTVL
binding result [3]: no binding (tested: 1 nM)
